Data taken from patent US20230303623A1, “PEPTIDES AND METHODS OF USE” (REALTA LIFE SCIENCES, INC., priority 2020, published 2023).
“Also recorded” adds a separate entry of the source. Bridges are numbered along the chain shown (N, C = ends). Where no end group is shown, it is not given here. [ ]: non-standard residue; d: D form. S5 = C=CCCC[C@](C)(N)C(=O)O; Sar = CNCC(=O)O

Key:
[1] = test system: antibody-initiated complement activation (lysis of AB human red blood cells by type O serum); assay: ABO incompatibility hemolytic complement assay (CH50-type); assay type: cell-based; details: peptides 0.8 mg/ml (~0.5 mM); compared to parent peptide
Experimental: FIG. 1A-1B show PIC1 peptides' inhibition of complement activation in an ABO incompatibility assay. […] Inhibition of ABO incompatibility hemolysis in a CH50-type assay. Peptides are at a final concentration of 0.5 mM. Values are represented as a percent of the positive control, which consists of human 0 sera and AB red blood cells in GVBS^++ buffer. Data are the means of n=3 independent experiments±SEM.
For hemolytic complement assays, human red blood cells (RBCs) from type AB donors were purified, washed, and standardized to 1.0×10^9 cells/ml, as previously described. Human sera from type 0 donors at a 15% final concentration was combined with 0.5 mM of the peptides and the volume was brought up to 0.2 ml with GVBS^++ and 5.0×10^7 RBCs. The samples were incubated for 1 hour at 37° C. and then spun at 3,000 rpm for 5 minutes and the supernatant was collected and read at 412 nm. Values are represented as a percent of the positive control, which consists of human 0 sera and AB red blood cells in GVBS^++ buffer.
To assess the extent to which the peptide variants inhibit antibody-initiated complement activation, an ABO incompatibility ex vivo assay was utilized in which purified erythrocytes from a ‘type AB+’ donor are incubated with sera from a ‘type 0’ subject containing anti-A and anti-B antibodies. Peptides were tested at a concentration of 0.8 mg/ml (˜0.5 mM).

C1q = target: T1, C1q (Homo sapiens, UniProt P02745+P02746+P02747); assay: C1q binding ELISA-type assay; details: compared to parent peptide
T1 construct: purchased Complement Technology (Tyler, TX)
T1 sequence (P02745 23-245): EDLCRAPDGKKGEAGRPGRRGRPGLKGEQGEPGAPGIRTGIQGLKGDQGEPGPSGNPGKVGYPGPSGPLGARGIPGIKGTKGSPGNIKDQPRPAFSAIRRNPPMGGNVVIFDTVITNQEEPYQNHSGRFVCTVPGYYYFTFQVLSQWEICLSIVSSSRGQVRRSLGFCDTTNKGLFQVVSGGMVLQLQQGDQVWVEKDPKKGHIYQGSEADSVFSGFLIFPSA
T1 sequence (P02746 28-253): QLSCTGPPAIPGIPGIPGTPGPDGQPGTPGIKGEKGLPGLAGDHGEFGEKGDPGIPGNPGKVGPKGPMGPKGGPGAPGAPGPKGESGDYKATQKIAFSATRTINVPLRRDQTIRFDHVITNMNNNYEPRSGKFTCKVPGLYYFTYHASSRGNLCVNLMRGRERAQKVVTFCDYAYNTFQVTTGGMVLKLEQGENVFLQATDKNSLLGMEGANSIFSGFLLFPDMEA
T1 sequence (P02747 29-245): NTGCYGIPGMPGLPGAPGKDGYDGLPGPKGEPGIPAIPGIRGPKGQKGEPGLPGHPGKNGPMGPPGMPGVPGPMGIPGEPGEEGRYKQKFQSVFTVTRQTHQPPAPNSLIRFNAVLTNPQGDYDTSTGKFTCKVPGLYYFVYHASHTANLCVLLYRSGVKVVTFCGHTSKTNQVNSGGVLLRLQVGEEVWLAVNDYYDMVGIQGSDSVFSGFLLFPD
Experimental: The C1q binding assay was performed as previously described. Briefly, an Immunlon-2 HB ELISA plate was coated with 1 μg/ml C1q in bicarbonate buffer overnight at 4° C. The plates were washed with PBS-T (phosphate buffered saline+0.1% Tween) and then blocked with 1% gelatin/PBS for 2 hours at room temperature. After washing, the plates were incubated with the peptides starting at 2.5 mg/ml and then serially diluted in 1% gelatin/PBS for 1 hour at room temperature followed by washing. Plates were then probed with rabbit antibody raised against the lead peptide […] (SEQ ID NO: 2) that lacked PEGylation at 1:1000 in 1% gelatin/PBS for 1 hour at room temperature followed by a goat anti-rabbit HRP (Sigma Aldrich, St Louis, MO) at 1:1,000 in 1% gelatin/PBS for 1 hour at room temperature with a washing step in between. After addition of TMB substrate solution to the wells, the reaction was stopped using 1N H2SO4, and the plate read on a BioTek Synergy HT plate reader at 450 nm.
The astrovirus capsid protein and the PIC1 molecules derived from it inhibit classical complement pathway activation by binding to the pattern recognition molecule C1q. The inventors next tested peptide variant binding to C1q in an ELISA-type assay in which C1q is used as the capture substrate and bound peptide detected with a rabbit polyclonal antibody against the peptide portion of PA-dPEG24 ([…]-d24; SEQ ID NO: 3). Binding curves were derived for the stapled and D-amino acid peptides based on the PA-I8Sar and PA-C9Sar (FIG. 5A-5C) backbone, from which half-maximal binding concentrations were calculated (FIGS. 2A and B, respectively). […] For the peptides based on the PA-C9Sar backbone, C1q was bound to a greater degree than the parent peptide (FIG. 2B).

[2] = Total Antioxidant Capacity (TAC) assay; details: highest peptide concentration 1.5 mM; compared to parent peptide
Experimental: As previously reported, the TAC (Total Antioxidant Capacity) Assay (Cell Biolabs, Inc, San Diego, CA) was used to measure the antioxidant capacity of the PIC1 variants based on the reduction of copper (II) to copper (I). The kit protocol was performed per the manufacturer's recommendations.
The antioxidant properties for the PIC1 variants were evaluated in a Total Antioxidant Capacity (TAC) assay, as previously reported. Total antioxidant activity over a range of peptide concentrations were determined for the stapled and the D-amino acid peptides based on the PA-I8Sar and PA-C9Sar backbones (FIG. 4A-4B), with the activity of the highest peptide concentration reported (1.5 mM) (FIG. 5A-5C).

[3] = without PEGylation; as described in U.S. Pat. No. 10,005,818; cited from earlier work
MPO = target: T2, MPO (Homo sapiens, UniProt P05164); assay: MPO activity assay; assay type: biochemical; details: compared to parent peptide
T2 construct: purchased Lee BioSolutions (Maryland Heights, MO)
T2 sequence (P05164 279-745 limits assumed): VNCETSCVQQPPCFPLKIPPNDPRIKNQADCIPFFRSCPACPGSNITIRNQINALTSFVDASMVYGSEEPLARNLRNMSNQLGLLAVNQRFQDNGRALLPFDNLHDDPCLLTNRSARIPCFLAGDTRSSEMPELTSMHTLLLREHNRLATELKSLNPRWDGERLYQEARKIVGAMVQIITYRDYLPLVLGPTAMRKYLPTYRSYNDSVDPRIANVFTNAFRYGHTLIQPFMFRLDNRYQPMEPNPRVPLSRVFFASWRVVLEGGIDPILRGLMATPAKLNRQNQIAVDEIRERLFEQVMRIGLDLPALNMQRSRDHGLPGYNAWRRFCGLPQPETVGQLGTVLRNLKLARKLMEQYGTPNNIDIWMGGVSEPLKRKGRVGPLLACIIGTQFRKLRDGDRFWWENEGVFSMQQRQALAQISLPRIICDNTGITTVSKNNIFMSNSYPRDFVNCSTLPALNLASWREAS
T2 sequence (P05164 165-273 limits assumed): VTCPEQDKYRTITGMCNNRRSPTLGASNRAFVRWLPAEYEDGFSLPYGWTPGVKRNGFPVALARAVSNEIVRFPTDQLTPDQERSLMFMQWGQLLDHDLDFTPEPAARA
Experimental: The MPO activity assay was performed as previously described. Briefly, peptides were diluted to 12 mg/ml and serially titrated in a 96 well plate at a volume of 0.02 ml. MPO was diluted to 20 μg/ml and 0.02 ml was added to the titrated peptides. TMB (3,30,5,50-tetramethylbenzidine) (0.1 ml) was added to each well for 2 minutes, followed by 0.1 ml of 2.5 N H2SO4 for another 2 minutes, and then read on a 96 well plate reader (BioTek) at 450 nm.
To ascertain the inhibition of MPO activity by the various peptides, a range of concentrations of the stapled peptides and D-amino acid variants were tested (FIG. 3A-3B) and half-maximal activity levels were calculated from the dose-response curves (FIG. 6A-6C, respectively).

[4] = test system: purified human Pan T-cells; assay: T-cell exhaustion protocol (repeated CD3/CD28 Dynabead stimulation); assay type: cell-based; details: ELISA, listed as RLS-0154
Experimental: Purified human pan-T-cells were subject to stimulation with Dynabeads every 48 hours over the period of 8 days with cells also receiving PIC1 peptides (2 mg/ml) at each stimulation. Cells not receiving Dynabeads were run in parallel to assess background levels of Caspase 3/7 signal. At the eighth day, cells were harvested, and the levels of Caspase 3/7 determined by ELISA.
Purified human pan-T-cells were subject to stimulation with Dynabeads every 48 hours over the period of 8 days with cells also receiving PIC1 peptides (2 mg/ml) at each stimulation. Cell supernatants were collected at each stimulation and levels of IL-2 and IFN-gamma assayed by ELISA.
T-cell exhaustion is a form of T-cell dysfunction that occurs in cancer. It is generally defined by poor effector function, reduction in cytokine release (e.g., IL-2, TNF-alpha, IFN-gamma), sustained expression of inhibitory receptors (e.g., PD-1, LAG-3, CD244, CD160) with the progressive loss of effector function due to overstimulation. Exhaustion can prevent optimal control of tumor growth. Exhausted T cells are prevalent in the tumor microenvironment (TME) and can lead to T-cell apoptosis. T-cell exhaustion is reversible and pharmaceutical inhibition of T-cell exhaustion has been considered a promising strategy by many cancer researchers. To ascertain if PIC1 peptides could reverse T-cell exhaustion and increase T cell viability and effector function, a T-cell exhaustion protocol was developed. To induce T-cell exhaustion, purified human Pan T-cells were stimulated with T-Activator CD3/CD28 Dynabeads and cells were washed and re-stimulated every 48 hours. PIC1 peptides were added to the cells after each stimulation with Dynabeads. After three to four stimulations, cells were harvested for readouts which consisted of assessing T-cell apoptosis by measuring Caspase 3/7 levels and production of cytokines IL-2 and IFN-gamma, which are indicative of T-cell functionality. […] To further evaluate if PIC1 peptides could restore T-cell functionality in cells that have undergone the exhaustion protocol, the inventors next assessed production of cytokines IL-2 and IFN-gamma. Supernatants from the cells after each stimulation was collected and the cytokines measured by ELISA. […] The lower level of IFN-gamma signal was consistently seen in this assay.

VEGF = target: T3, VEGF (Homo sapiens, UniProt P15692); assay: VEGF Bioassay (Promega), VEGF signaling via VEGFR-2 (KDR); assay type: cell-based
T3 construct: Promega (bioassay)
T3 sequence (P15692 27-191 isoform P15692-4): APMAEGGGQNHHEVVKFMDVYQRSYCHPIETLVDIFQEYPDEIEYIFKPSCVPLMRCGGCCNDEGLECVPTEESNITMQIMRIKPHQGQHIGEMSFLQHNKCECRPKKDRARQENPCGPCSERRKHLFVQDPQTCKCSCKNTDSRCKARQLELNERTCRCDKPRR
Excerpt: Luminescence was detected in luminometer plate reader.
Angiogenesis, or the formation of new blood vessels from the established vasculature, is an essential element in tumor growth and metastasis formation. Inhibiting tumor angiogenesis is considered a major therapeutic strategy in oncology. […] The bioluminescent signal is detected in a luminometer.

CTLA-4 = target: T4, CTLA-4 (Homo sapiens, UniProt P16410); assay: CTLA-4 Blockade Bioassay (Promega); assay type: cell-based; parameters: host or cells: Jurkat T cells (CTLA-4 effector cells) co-cultured with aAPC/Raji cells; details: increasing concentrations; listed as RLS-0154
T4 sequence (P16410 36-223): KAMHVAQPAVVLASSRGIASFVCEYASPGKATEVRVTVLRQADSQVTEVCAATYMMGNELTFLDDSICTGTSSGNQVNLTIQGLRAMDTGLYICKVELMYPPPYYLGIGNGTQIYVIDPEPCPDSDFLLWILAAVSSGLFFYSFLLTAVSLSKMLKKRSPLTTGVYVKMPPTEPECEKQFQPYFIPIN
Experimental: CTLA-4 effector cells were incubated with aAPC/Raji Cells in the absence or presence of increasing concentrations of anti-CTLA-4 antibody (positive control), RLS-0122, RLS-0150, RLS-0154, RLS-0164 and RLS-0168 and RLS-0088 (negative control). Luminescence was detected in luminometer plate reader. The drop-off in signal with the test peptides at high concentrations is due to cell death as a result of peptide buffer effects on the cells.
To assess if PIC1 peptides could block CTLA-4 inhibitory activity in a cell-based assay, select peptides were screened in the CTLA-4 Blockade Bioassay (Promega). This bioluminescent cell-based assay can be used to measure the potency and stability of molecules targeting CTLA-4 and consists of two genetically engineered cell lines: CTLA-4 effector cells: Jurkat T cells expressing human CTLA-4 and a luciferase reporter driven by a native promoter which responds to TCR/CD28 activation and aAPC/Raji Cells: Raji cells expressing an engineered cell surface protein designed to activate cognate TCRs in an antigen-independent manner and endogenously expressing CTLA-4 ligands CD80 and CD86. When the two cell types are co-cultured, CTLA-4 competes with CD28 for their shared ligands, CD80 and CD86 and thus inhibits CD28 pathway activation and promoter-mediated luminescence. Addition of a molecule that blocks the interaction of CTLA-4 with its ligands CD80 and CD86 results in promoter-mediated luminescence.

PD-1 binding to PD-L1 = target: T5, PD-1 binding to PD-L1 (Homo sapiens, UniProt Q9NZQ7); assay: PD-1:PD-L1 inhibitor screening ELISA; details: FIG. 8
T5 construct: purchased
T5 sequence (Q9NZQ7 19-238 limits assumed): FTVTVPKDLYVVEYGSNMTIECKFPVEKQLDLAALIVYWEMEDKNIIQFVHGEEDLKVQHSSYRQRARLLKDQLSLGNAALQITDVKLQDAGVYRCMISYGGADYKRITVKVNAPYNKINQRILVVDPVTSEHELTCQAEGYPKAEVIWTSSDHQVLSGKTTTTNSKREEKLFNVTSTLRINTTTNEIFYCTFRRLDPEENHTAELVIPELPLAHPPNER
Experimental: PIC1 peptides were allowed to bind to immobilized PD-L1 on the surface of the plate. Biotinylated PD-1 was then added and bound PD-1 detected by streptavidin-HRP reagent followed by TMB as the substrate for the colorimetric assay.
This inhibitor screening ELISA pair was designed to facilitate the identification and characterization of new PD-1 pathway inhibitors. In this assay, biotinylated human PD-1 was bound to immobilized human PD-L1 and a colorimetric sandwich ELISA platform was used. Plates were coated with human PD-L1 followed by incubation with various PIC1 peptides. Human PD-1-Biotin was then allowed to bind the coated human PD-L1 followed by addition of streptavidin-HRP. TMB was then added as the colorimetric HRP substrate and the wells of the plate analyzed in a plate reader at an absorbance of 450 nm.
The immune checkpoint pathway is an area of significant interest in cancer research. PD-1 is one of the best characterized checkpoint proteins. The binding between PD-1 and its ligand PD-L1 suppresses T-cell activation and allows cancer cells to escape from body's immune surveillance. Therefore, the pharmaceutical inhibition of PD-1 or its ligand has been considered a promising strategy by many cancer researchers. To ascertain if these PIC1 derivatives could inhibit PD-1 interaction with PD-L1, a commercial ELISA kit was utilized. […]

[5] = peptides 2 mg/ml, stimulation 2

IAdLILEP(Sar)CS5QERS5A (H-IA[dL]ILEP[Sar]C[S5]QER[S5]A-OH; staple 10-14; not fully specified) [PA-0142]
inhibition of ABO incompatible hemolysis (complement inhibition), in words [1]: similar
binding to C1q (binding curves, half-maximal binding), in words (C1q): did not bind C1q
total antioxidant capacity, in words [2]: decreased activity compared to the parent peptide

IALILEPI(Sar)CQERAA (IALILEPIXCQERAA; sarcosine at position 9; MOD_RES (9)..(9) Sarcosine) [PA-0089, parent peptide, sarcosine at position 9 of PIC1]
solubility in water [3]: water soluble without PEGylation

IS5LILS5PI(Sar)CQERAA (I[S5]LIL[S5]PI[Sar]CQERAA; staple 2-6; not fully specified; printed as IS5LILS5PI(Sar)CQERAA) [PA-0152]
binding to C1q (binding curves, half-maximal binding), in words (C1q): did not titrate
inhibition of MPO activity (half-maximal values), in words (MPO): decreased MPO inhibition

IALILES5I(Sar)CS5ERAA (IALILE[S5]I[Sar]C[S5]ERAA; staple 7-11; not fully specified; printed as IALILES5I(Sar)CS5ERAA) [PA-0154]
inhibition of MPO activity (half-maximal values), in words (MPO): decreased MPO inhibition
Caspase 3/7 levels, in words ([4]; peptides 2 mg/ml at each stimulation, day 8): increase in Caspase 3/7 levels; also recorded: did not display reduction of Caspase levels
IFN-gamma levels in cell supernatants, in words [4, 5]: not and increased levels
IL-2 levels in cell supernatants, in words [4, 5]: detectable IL-2 at stimulation 2; also recorded: increased levels
inhibition of VEGF signaling via VEGFR-2 (luminescence), in words (VEGF): dose-dependently reduced luminescence
inhibition of CTLA-4 mediated cell signaling (increase in luminescence), in words (CTLA-4): showed inhibitory activity; also recorded: able to inhibit CTLA-4 mediated cell signaling

IALILEPICCQERAA-PEG24 (C-terminal PEG24) [PA-0071, PIC1 peptide with C-terminal monodisperse 24-mer PEGylated moiety]
inhibition of binding of PD-1 to PD-L1, in words (PD-1 binding to PD-L1): did not inhibit
